According to patent US20110230406A1:

Target: rhBMP-2 (R&D Systems, Item number 355-BM/CF) (human) (UniProt P12643)
Test: retention test: peptide-free EDC/NHS crosslinked collagen disc loaded with 40 micrograms rhBMP-2, spun, unbound rhBMP-2 in supernatant by ELISA; control for the affinity biomatrix

rhBMP-2 (R&D Systems, Item number 355-BM/CF) (human), sequence (P12643 283-396 limits assumed): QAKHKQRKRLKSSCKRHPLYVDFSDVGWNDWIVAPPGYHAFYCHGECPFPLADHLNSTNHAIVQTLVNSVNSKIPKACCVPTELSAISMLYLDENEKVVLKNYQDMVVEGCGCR

**Q.** “affinity peptide-free EDC/NHS crosslinked collagen disc (6 mm diameter)” was tested. Which % rhBMP-2 incorporation did it give?
**A.** The % rhBMP-2 incorporation was 40 % by weight.
